Three molecules from patent publication US20210253715A1 (NATIONAL RESEARCH COUNCIL OF CANADA, published 2021) can be followed below.

By Kd is commonly meant the equilibrium constant for the complex coming apart. Broadly, the koff is the rate constant with which the complex falls apart. As usually defined, the kon is a measure of how fast the partners come together.

Test [1] addresses T1, human IGF1R (human, UniProt P08069 31-932, limits assumed).
T1 construct: also called hIGF1R; h-IGF1R
In words: SPR (Biacore T200), hIGF1R immobilised on CM4 chip, analyte injected at 20 nM, 25 C. The procedure:
(§1) Surface Plasmon Resonance (SPR) analysis was performed to determine the affinity of the IGF1R3H5-IDS construct towards human IGF1R (hIGR1R). The SPR analysis was performed on a Biacore T200 (GE Healthcare) under the following conditions. hIGF1R was immobilized on a CM4 chip at high density (FC1—ethanoloamine blocked; FC3—2,500 RUs of hIGF1R). A variable concentration of the flowing molecule was used, with contact and dissociations times of 300 and 400 s, respectively. The assay was performed at 25° C. with a flow rate of 40 μL/min and the chip was regenerated in 10 mM glycine (pH 5.5). […] In summary, the IGF1R3H5-IDS construct retains its ability to bind to the target receptor IGF1R.

The target of test [2] is T1, human IGF1R. In words: SPR, Biacore T200, hIGF1R immobilised on CM4 chip, analyte at 2.5 nM (FIG. 5C); analyte at 2.5 nM (FIG. 5C). The procedure: as §1
For orientation: Surface plasmon resonance follows binding to a sensor surface in real time, without labels.

The target of test [3] is T1, human IGF1R. In words: SPR (Biacore T200), hIGF1R immobilised on CM4 chip, analyte injected at 50 nM, 25 C; text says matrix effects lower the on-rate at this concentration. The procedure: as §1
Test [4] addresses T1, human IGF1R. Description: SPR (Biacore T200), hIGF1R immobilised on CM4 chip, analyte injected at 50 nM, 25 C; text calls the affinity at this concentration inaccurate (matrix effects). The procedure:
as §1

The target of test [5] is T1, human IGF1R. Description: SPR, Biacore T200, hIGF1R immobilised on CM4 chip, analyte at 50 nM (FIG. 5D); the filing calls this value inaccurate because of matrix effects; analyte at 50 nM (FIG. 5D); matrix effects, called inaccurate. The procedure:
as §1

For test [6], the target named is T1, human IGF1R. Description: SPR (Biacore T200), hIGF1R immobilised on CM4 chip, analyte injected at 2.5 nM, 25 C. The procedure: as §1
Test [7] concerns the target T1, human IGF1R. In words: SPR, Biacore T200, hIGF1R immobilised on CM4 chip; parental VHH, not the IDS fusion.

T1 sequence (P08069 31-932 limits assumed): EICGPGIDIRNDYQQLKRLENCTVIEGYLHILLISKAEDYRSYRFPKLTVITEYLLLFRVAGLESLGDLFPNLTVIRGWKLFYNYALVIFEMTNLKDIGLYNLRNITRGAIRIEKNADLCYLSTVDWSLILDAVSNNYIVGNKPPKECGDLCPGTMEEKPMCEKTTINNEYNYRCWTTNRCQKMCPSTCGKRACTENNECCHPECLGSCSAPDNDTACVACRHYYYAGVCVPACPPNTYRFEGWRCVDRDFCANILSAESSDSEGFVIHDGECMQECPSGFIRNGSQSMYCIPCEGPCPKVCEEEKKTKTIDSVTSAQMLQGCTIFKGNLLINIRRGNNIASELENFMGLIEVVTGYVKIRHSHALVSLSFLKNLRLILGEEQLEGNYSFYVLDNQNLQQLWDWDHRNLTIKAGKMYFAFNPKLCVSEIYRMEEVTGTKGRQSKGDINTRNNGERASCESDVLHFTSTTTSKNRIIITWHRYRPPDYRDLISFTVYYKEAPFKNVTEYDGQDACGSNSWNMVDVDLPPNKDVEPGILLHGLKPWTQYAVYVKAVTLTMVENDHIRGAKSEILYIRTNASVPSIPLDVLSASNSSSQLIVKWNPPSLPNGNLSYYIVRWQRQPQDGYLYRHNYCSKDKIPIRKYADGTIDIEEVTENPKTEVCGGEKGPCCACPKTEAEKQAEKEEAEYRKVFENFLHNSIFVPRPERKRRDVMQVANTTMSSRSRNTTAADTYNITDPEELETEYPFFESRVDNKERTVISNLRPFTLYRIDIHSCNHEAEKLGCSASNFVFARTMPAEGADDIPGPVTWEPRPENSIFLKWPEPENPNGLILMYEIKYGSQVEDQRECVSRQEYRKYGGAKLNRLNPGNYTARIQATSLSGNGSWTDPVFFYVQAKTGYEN

B1: IGF1R3H5-IDS (uncapped) (other)
chain: EVQLVESGGGLVQPGGSLRLSCAASEYPSNFYAMSWFRQAPGKEREFVSGVSRDGLTTLYADSVKGRFTISRDNSKNTLYLQMNSLRAEDTAVYYCAIVITGVWNKVDVNSRSYHYWGQGTLVTVSSGGGGSGGGGSGGGGSGGGGSGGGGSSETQANSTTDALNVLLIIVDDLRPSLGCYGDKLVRSPNIDQLASHSLLFQNAFAQQAVCAPSRVSFLTGRRPDTTRLYDFNSYWRVHAGNFSTIPQYFKENGYVTMSVGKVFHPGISSNHTDDSPYSWSFPPYHPSSEKYENTKTCRGPDGELHANLLCPVDVLDVPEGTLPDKQSTEQAIQLLEKMKTSASPFFLAVGYHKPHIPFRYPKEFQKLYPLENITLAPDPEVPDGLPPVAYNPWMDIRQREDVQALNISVPYGPIPVDFQRKIRQSYFASVSYLDTQVGRLLSALDDLQLANSTIIAFTSDHGWALGEHGEWAKYSNFDVATHVPLIFYVPGRTASLPEAGEKLFPYLDPFDSASQLMEPGRQSMDLVELVSLFPTLAGLAGLQVPPRCPVPSFHVELCREGKNLLKHFRFRDLEEDPYLPGNPRELIAYSQYPRPSDIPQWNSDKPSLKDIKIMGYSIRTIDYRYTVWVGFNPDEFLANFSDIHAGELYFVDSDPLQDHNMYNDSQGGDLFQLLMPHHHHHHHHWSHPQFEK
modifications: phosphorylated N-glycans; Man-6-P uncapped by Jack Bean alpha-mannosidase (JBMan) treatment
notes: Single-chain fusion of a VHH with an enzyme, made in Yarrowia lipolytica; the two differ only in N-glycan uncapping; also called uncapped IGF1R3H5-IDS; P454
As for B1, in test [1], the Kd amounted to 40.2 nM, the koff is 0.00289 s⁻¹ and the kon was found to be 71900 M⁻¹ s⁻¹.

B2: IGF1R3H5-IDS (capped) (other)
chain: EVQLVESGGGLVQPGGSLRLSCAASEYPSNFYAMSWFRQAPGKEREFVSGVSRDGLTTLYADSVKGRFTISRDNSKNTLYLQMNSLRAEDTAVYYCAIVITGVWNKVDVNSRSYHYWGQGTLVTVSSGGGGSGGGGSGGGGSGGGGSGGGGSSETQANSTTDALNVLLIIVDDLRPSLGCYGDKLVRSPNIDQLASHSLLFQNAFAQQAVCAPSRVSFLTGRRPDTTRLYDFNSYWRVHAGNFSTIPQYFKENGYVTMSVGKVFHPGISSNHTDDSPYSWSFPPYHPSSEKYENTKTCRGPDGELHANLLCPVDVLDVPEGTLPDKQSTEQAIQLLEKMKTSASPFFLAVGYHKPHIPFRYPKEFQKLYPLENITLAPDPEVPDGLPPVAYNPWMDIRQREDVQALNISVPYGPIPVDFQRKIRQSYFASVSYLDTQVGRLLSALDDLQLANSTIIAFTSDHGWALGEHGEWAKYSNFDVATHVPLIFYVPGRTASLPEAGEKLFPYLDPFDSASQLMEPGRQSMDLVELVSLFPTLAGLAGLQVPPRCPVPSFHVELCREGKNLLKHFRFRDLEEDPYLPGNPRELIAYSQYPRPSDIPQWNSDKPSLKDIKIMGYSIRTIDYRYTVWVGFNPDEFLANFSDIHAGELYFVDSDPLQDHNMYNDSQGGDLFQLLMPHHHHHHHHWSHPQFEK
modifications: phosphorylated N-glycans; Man-6-P still capped (no uncapping)
notes: also called capped IGF1R3H5-IDS
Turning to B2, the Kd in test [2] is roughly 7 nM; in test [4] it was 69.8 nM; in test [5], roughly 70 nM; in test [6], 7.42 nM; in test [1], 46.1 nM. In addition, the values for the koff in test [3], in test [6] and in test [1] were 0.0029 s⁻¹, 0.00288 s⁻¹ and 0.00295 s⁻¹, respectively. Further, the results for the kon in test [3], in test [6] and in test [1] were 42000 M⁻¹ s⁻¹, 388000 M⁻¹ s⁻¹ and 64000 M⁻¹ s⁻¹, respectively.

B3: IGF1R3H5 VHH (VHH)
VHH: EVQLVESGGGLVQPGGSLRLSCAASEYPSNFYAMSWFRQAPGKEREFVSGVSRDGLTTLYADSVKGRFTISRDNSKNTLYLQMNSLRAEDTAVYYCAIVITGVWNKVDVNSRSYHYWGQGTLVTVSS
notes: also called parental VHH IGF1R3H5
In the case of B3, in test [7], the Kd is 7.5 nM, the koff is 0.00251 s⁻¹ and the kon is 334000 M⁻¹ s⁻¹.
